Earlier results in PMC2488365.

Biological target: penton base (Human adenovirus 2) (UniProt P03276)
UniProt P03276, sequence (P03276 whole entry): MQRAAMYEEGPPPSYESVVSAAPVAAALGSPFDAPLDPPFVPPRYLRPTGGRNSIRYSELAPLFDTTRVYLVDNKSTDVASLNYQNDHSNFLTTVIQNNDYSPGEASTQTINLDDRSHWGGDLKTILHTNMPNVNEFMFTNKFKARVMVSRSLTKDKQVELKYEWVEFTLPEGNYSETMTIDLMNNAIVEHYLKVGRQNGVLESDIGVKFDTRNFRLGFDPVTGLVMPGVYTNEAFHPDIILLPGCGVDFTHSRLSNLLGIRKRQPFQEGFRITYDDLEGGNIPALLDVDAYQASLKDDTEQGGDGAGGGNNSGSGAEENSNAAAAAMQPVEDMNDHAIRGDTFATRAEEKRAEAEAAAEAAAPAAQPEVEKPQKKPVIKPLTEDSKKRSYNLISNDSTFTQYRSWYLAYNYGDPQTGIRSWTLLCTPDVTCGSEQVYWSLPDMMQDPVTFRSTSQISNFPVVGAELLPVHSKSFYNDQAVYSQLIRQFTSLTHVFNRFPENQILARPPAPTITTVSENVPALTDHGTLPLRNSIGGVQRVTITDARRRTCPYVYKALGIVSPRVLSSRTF

For fiber (from UniProt P03275), the Kd is listed as 200 nM.
